Measured values as given in US20180112005A1 (published 2018).

B1: Antibody A-1, phage-displayed Fab clone (Fab, V domains shown)
VH: EVQLVESGGGLVQPGGSLRLSCAASGFTFSSYWIHWVRQAPGKGLEWVARINPPNGSAHYADSVKGRFTISADTSKNTAYLQMNSLRAEDTAVYYCARGSGFRWVMDYWGQGTLVTVSS
VL: DIQMTQSPSSLSASVGDRVTITCRASQDVSTAVAWYQQKPGKAPKLLIYSASFLYSGVPSRFSGSGSGTDFTLTISSLQPEDFATYYCQQSYTTPATFGQGTKVEIKR
B2: Antibody A-1 (antibody, IgG1, V domains shown)
VH: EVQLVESGGGLVQPGGSLRLSCAASGFTFSSYWIHWVRQAPGKGLEWVARINPPNGSAHYADSVKGRFTISADTSKNTAYLQMNSLRAEDTAVYYCARGSGFRWVMDYWGQGTLVTVSS
VL: DIQMTQSPSSLSASVGDRVTITCRASQDVSTAVAWYQQKPGKAPKLLIYSASFLYSGVPSRFSGSGSGTDFTLTISSLQPEDFATYYCQQSYTTPATFGQGTKVEIKR
notes: also called Antibody A-1-hIgG1
B3: Antibody A (antibody, IgG1, V domains shown)
VH: EVQLVESGGGLVQPGGSLRLSCAASGFTFSSYWIHWVRQAPGKGLEWVARINPSNGSTNYADSVKGRFTISADTSKNTAYLQMNSLRAEDTAVYYCARGSGFRWVMDYWGQGTLVTVSS
VL: DIQMTQSPSSLSASVGDRVTITCRASQDVSTAVAWYQQKPGKAPKLLIYSASFLYSGVPSRFSGSGSGTDFTLTISSLQPEDFATYYCQQSYTTPPTFGQGTKVEIKR
notes: also called anti-Notch1 NRR Antibody A; Antibody A-hIgG1
B4: Antibody A-3, phage-displayed Fab clone (Fab, V domains shown)
VH: EVQLVESGGGLVQPGGSLRLSCAASGFTFSSYWIHWVRQAPGKGLEWVARINPANGSTRYADSVKGRFTISADTSKNTAYLQMNSLRAEDTAVYYCARGSGFRWVMDYWGQGTLVTVSS
VL: DIQMTQSPSSLSASVGDRVTITCRASQDVSTAVAWYQQKPGKAPKLLIYSASFLYSGVPSRFSGSGSGTDFTLTISSLQPEDFATYYCQQSFSTPATFGQGTKVEIKR
B5: Antibody A-3 (antibody, V domains shown)
VH: EVQLVESGGGLVQPGGSLRLSCAASGFTFSSYWIHWVRQAPGKGLEWVARINPANGSTRYADSVKGRFTISADTSKNTAYLQMNSLRAEDTAVYYCARGSGFRWVMDYWGQGTLVTVSS
VL: DIQMTQSPSSLSASVGDRVTITCRASQDVSTAVAWYQQKPGKAPKLLIYSASFLYSGVPSRFSGSGSGTDFTLTISSLQPEDFATYYCQQSFSTPATFGQGTKVEIKR
B6: Antibody A-2, phage-displayed Fab clone (Fab, V domains shown)
VH: EVQLVESGGGLVQPGGSLRLSCAASGFTFSSYWIHWVRQAPGKGLEWVARINPPNRSNQYADSVKGRFTISADTSKNTAYLQMNSLRAEDTAVYYCARGSGFRWVMDYWGQGTLVTVSS
VL: DIQMTQSPSSLSASVGDRVTITCRASQDVSTAVAWYQQKPGKAPKLLIYSASFLYSGVPSRFSGSGSGTDFTLTISSLQPEDFATYYCQQFYTTPSTFGQGTKVEIKR
B7: Antibody A-2 (antibody, IgG1, V domains shown)
VH: EVQLVESGGGLVQPGGSLRLSCAASGFTFSSYWIHWVRQAPGKGLEWVARINPPNRSNQYADSVKGRFTISADTSKNTAYLQMNSLRAEDTAVYYCARGSGFRWVMDYWGQGTLVTVSS
VL: DIQMTQSPSSLSASVGDRVTITCRASQDVSTAVAWYQQKPGKAPKLLIYSASFLYSGVPSRFSGSGSGTDFTLTISSLQPEDFATYYCQQFYTTPSTFGQGTKVEIKR
notes: also called Antibody A-2-hIgG1

How the values were obtained:
[1] = biological target: T1, mFLAG-EGF34+NRR-His6, the murine Notch1 NRR immunogen (mouse Notch1 V1307-Q1723) (mouse, UniProt Q01705 1307-1723); assay: competitive phage-binding ELISA; phage-displayed Fab pre-mixed with serial dilutions of soluble NRR1, then captured on NRR1-coated plate
T1 construct: N-terminal FLAG tag and C-terminal His tag, expressed in 293-F cells; also called mNotch1 NRR; mouse Notch1 NRR
T1 sequence (Q01705 other isoform, or with tags, fused parts or gaps): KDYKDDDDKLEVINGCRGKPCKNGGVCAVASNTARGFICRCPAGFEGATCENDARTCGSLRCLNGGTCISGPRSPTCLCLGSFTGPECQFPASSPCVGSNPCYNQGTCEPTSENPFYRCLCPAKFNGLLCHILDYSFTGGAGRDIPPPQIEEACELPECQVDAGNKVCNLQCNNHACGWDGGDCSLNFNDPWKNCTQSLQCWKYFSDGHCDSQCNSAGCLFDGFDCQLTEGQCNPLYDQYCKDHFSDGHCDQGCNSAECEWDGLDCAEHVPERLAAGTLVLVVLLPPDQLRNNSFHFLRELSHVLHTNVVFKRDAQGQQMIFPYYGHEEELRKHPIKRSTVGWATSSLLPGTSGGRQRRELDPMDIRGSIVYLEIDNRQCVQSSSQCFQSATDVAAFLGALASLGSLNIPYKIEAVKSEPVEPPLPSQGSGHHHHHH
Description: (§1) To identify the phage antibodies that bound to both human and murine Notch1 NRR, all unique clones were tested for binding to human and murine Notch1 by ELISA. The affinities of phage antibodies were ranked using single spot competition ELISA as described below in this Example. The phage antibody IC50 values were further determined using competitive phage-binding ELISA essentially described in Lee, C. V., et al. (2004) J Mol Biol 340, 1073-93. Briefly, NUNC 96 well Maxisorp immunoplates were coated overnight at 4° C. with 1 μg/ml human NRR1 or murine NRR1, and were blocked for 1 hour at room temperature with blocking buffer PBST (PBS and 1% BSA and 0.05% Tween 20). Phage was mixed with serial dilution of human or murine NRR1 at room temperature for 1 hour before the mixture was added to human and murine NRR1 coated plate. Bound phage were detected with anti-M13 HRP conjugates, developed with TMB substrate for approximately 5 minutes, quenched with 1M H₃PO₄, and read spectrophotometrically at 450 nm.
(§2) In comparison to the OD_{450 nm} reduction (%) of the well of parental phage (100%), clones that had the OD_{450 nm} reduction (%) lower than 50% were picked for sequence analysis. Unique clones were selected for phage preparation to determine binding affinity (phage IC50) by comparison with parental clones (Table 4).

[2] = biological target: T2, hFLAG-EGF34+NRR-His6 (101V), the human Notch1 NRR immunogen (human Notch1 V1307-Q1733) (human, UniProt P46531 1307-1733); assay: as above
T2 construct: Secreted from Sf-9 cells; also called hNotch1 NRR; human NRR1
Description: as §1, §2

[3] = biological target: T1, mFLAG-EGF34+NRR-His6, the murine Notch1 …; assay: SPR (BIAcore-3000), IgG captured on rabbit anti-human IgG, NRR1-ECD protein injected 3.9-500 nM, 25 C, 1:1 Langmuir
Description: (§3) To further characterize the binding affinity and binding kinetics of the anti-Notch1 NRR Mabs, surface plasmon resonance (SRP) measurement with a BIAcore™-3000 was used (BIAcore, Inc., Piscataway, N.J.). Briefly, carboxymethylated dextran biosensor chips (CM5, BIAcore Inc.) were activated with N-ethyl-N′-(3-dimethylaminopropyl)-carbodiimide hydrochloride (EDC) and N-hydroxysuccinimide (NHS) according to the supplier's instructions. Rabbit anti human antibody (Pierce) was diluted with 10 mM sodium acetate, pH 4.8, into 20 μg/ml before injection at a flow rate of 5 μl/minute to achieve approximately 3000 response units (RU) of coupled antibody. Next, 1M ethanolamine was injected to block unreacted groups. Anti-NRR1 mab (formatted as a full-length IgG) was captured by rabbit anti-human IgG coated on the chips to achieve approximately 200 response units (RU). For kinetics measurements, two-fold serial dilutions of human NRR1-ECD or murine NRR1-ECD proteins (3.9 nM to 500 nM) were injected in PBT buffer (PBS with 0.05% Tween 20) at 25° C. with a flow rate of 30 μl/min. Association rates (kₒₙ) and dissociation rates (koff) were calculated using a simple one-to-one Langmuir binding model (BIAcore Evaluation Software version 3.2). The equilibrium dissociation constant (KD) was calculated as the ratio koff/kₒₙ.
(§4) “NA” signifies that the measurement was not performed.

[4] = biological target: T2, hFLAG-EGF34+NRR-His6 (101V), the human …; assay: as above
Description: as §3, §4

murine Notch2 NRR = biological target: T3, murine Notch2 NRR (mouse, UniProt O35516 1425-1679); assay: cross-reactivity test of the IgG (Table 3; method not detailed)
T3 construct: domain: NRR; It is split here into the two species; also called mouse NRR2
T3 sequence (looked up): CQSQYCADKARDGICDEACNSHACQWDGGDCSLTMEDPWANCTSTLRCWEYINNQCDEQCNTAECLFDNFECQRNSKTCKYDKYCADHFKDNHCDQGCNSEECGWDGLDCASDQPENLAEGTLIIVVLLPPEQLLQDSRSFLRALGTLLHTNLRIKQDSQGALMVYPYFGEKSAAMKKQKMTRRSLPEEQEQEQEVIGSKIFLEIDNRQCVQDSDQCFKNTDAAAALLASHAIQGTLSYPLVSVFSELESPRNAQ

murine Notch4 NRR = biological target: T4, murine Notch4 NRR (mouse, UniProt P31695 1166-1443, limits assumed); assay: as above
T4 construct: domain: NRR; It is split here into the two species; also called mouse NRR4
T4 sequence (looked up): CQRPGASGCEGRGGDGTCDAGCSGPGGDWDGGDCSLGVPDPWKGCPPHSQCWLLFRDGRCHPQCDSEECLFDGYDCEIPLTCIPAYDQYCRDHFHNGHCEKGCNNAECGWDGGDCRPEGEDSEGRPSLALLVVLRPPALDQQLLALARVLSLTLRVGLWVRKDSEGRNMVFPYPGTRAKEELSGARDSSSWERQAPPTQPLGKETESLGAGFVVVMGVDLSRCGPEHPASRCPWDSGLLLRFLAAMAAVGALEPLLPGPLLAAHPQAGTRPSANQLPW

human Notch2 NRR = biological target: T5, human Notch2 NRR (human, UniProt Q04721 1425-1677); assay: as above
T5 construct: domain: NRR; It is split here into the two species; also called human NRR2
T5 sequence (looked up): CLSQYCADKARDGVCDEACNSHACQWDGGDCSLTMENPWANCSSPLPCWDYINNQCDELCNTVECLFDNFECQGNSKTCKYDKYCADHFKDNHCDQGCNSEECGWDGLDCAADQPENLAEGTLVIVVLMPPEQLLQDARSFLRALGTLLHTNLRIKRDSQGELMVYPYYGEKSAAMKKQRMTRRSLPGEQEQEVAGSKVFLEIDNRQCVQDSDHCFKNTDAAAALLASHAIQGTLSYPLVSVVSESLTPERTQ

murine Notch3 NRR = biological target: T6, murine Notch3 NRR (mouse, UniProt Q61982 1379-1643, limits assumed); assay: as above
T6 construct: domain: NRR; It is split here into the two species; also called mouse NRR3
T6 sequence (Q61982 1379-1643 limits assumed): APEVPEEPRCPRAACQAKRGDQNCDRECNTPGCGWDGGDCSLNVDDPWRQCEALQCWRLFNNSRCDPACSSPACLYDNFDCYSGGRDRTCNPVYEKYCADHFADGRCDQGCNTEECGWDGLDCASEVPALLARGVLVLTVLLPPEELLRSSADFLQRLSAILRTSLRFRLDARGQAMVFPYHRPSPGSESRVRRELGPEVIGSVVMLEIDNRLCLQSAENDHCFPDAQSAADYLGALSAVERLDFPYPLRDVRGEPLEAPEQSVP

human Notch4 NRR = biological target: T7, human Notch4 NRR (human, UniProt Q99466 1170-1447, limits assumed); assay: as above
T7 construct: domain: NRR; It is split here into the two species; also called human NRR4
T7 sequence (looked up): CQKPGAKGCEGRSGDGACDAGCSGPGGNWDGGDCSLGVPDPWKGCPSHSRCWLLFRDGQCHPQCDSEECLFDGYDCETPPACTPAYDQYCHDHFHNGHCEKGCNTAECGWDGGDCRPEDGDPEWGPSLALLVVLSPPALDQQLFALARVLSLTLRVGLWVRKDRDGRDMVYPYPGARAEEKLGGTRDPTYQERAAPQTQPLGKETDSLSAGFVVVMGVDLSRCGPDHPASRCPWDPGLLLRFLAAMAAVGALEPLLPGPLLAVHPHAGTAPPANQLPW

human Notch3 NRR = biological target: T8, human Notch3 NRR (human, UniProt Q9UM47 1378-1643, limits assumed); assay: as above
T8 construct: domain: NRR; It is split here into the two species; also called human NRR3
T8 sequence (Q9UM47 1378-1643 limits assumed): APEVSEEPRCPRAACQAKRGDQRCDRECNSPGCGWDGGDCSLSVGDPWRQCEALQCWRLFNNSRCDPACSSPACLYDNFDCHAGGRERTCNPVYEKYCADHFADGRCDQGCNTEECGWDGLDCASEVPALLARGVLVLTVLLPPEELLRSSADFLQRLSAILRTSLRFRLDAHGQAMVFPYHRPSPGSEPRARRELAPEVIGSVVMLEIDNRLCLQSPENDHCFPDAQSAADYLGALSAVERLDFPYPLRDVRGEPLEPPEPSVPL

[5] = biological target: human Notch1 expressed on NIH-3T3 cells (human, UniProt P46531 19-2555); assay: cell-based or functional assay

Binder | IC50 [1] | IC50 [2] | Kd [3] | koff [3] | kon [3] | Kd [4] | koff [4] | kon [4] | binding result (murine Notch2 NRR) | binding result (murine Notch4 NRR) | binding result (human Notch2 NRR) | binding result (murine Notch3 NRR) | binding result (human Notch4 NRR) | binding result (human Notch3 NRR) | Co-culture blocking, IC50 [5]
B1 | 0.6 nM | 0.8 nM |  |  |  |  |  |  |  |  |  |  |  |  | 
B2 |  |  | 3.88 nM | 0.00033 s⁻¹ | 85000 M⁻¹ s⁻¹ | 3.43 nM | 0.00023 s⁻¹ | 67000 M⁻¹ s⁻¹ |  |  |  |  |  |  | 
B3 |  |  | 231 nM | 0.021 s⁻¹ | 91000 M⁻¹ s⁻¹ | 134 nM | 0.011 s⁻¹ | 82000 M⁻¹ s⁻¹ | no binding | no binding | no binding | no binding | no binding | no binding | ~0.1 µg/mL
B4 | 2.5 nM | 0.5 nM |  |  |  |  |  |  |  |  |  |  |  |  | 
B5 |  |  | 13 nM | 0.0012 s⁻¹ | 92000 M⁻¹ s⁻¹ | 5.88 nM | 0.0004 s⁻¹ | 68000 M⁻¹ s⁻¹ |  |  |  |  |  |  | 
B6 | 0.5 nM | 0.5 nM |  |  |  |  |  |  |  |  |  |  |  |  | 
B7 |  |  | 3.09 nM | 0.00034 s⁻¹ | 110000 M⁻¹ s⁻¹ | 2.53 nM | 0.00022 s⁻¹ | 87000 M⁻¹ s⁻¹ |  |  |  |  |  |  | 
